Consider two substances from patent US5691180.

For assay [1], the target named is iminobiotinylated bovine fetuin (bovine) (UniProt P12763).
Assay [2] deals with IgG-Sepharose (Pharmacia). The experiment in a line: IgG-Sepharose batch adsorption of conditioned medium, GalNAc-transferase activity assayed on the beads (Table 1B, Sepharose-IgG: applied 4914, flowthrough 214, bound 1853 units).

“protein A-GalNAc-transferase fusion protein (pPROTA-CTc) (from UniProt P38507) (enzyme)”: the Released activity (units) of GalNAc-transferase in assay [1] amounted to 9830 units. For the same substance, the percent of applied activity bound in assay [2] came out at 37%.

For “UDP-GalNAc: NeuAcα2,3Galβ-R β1,4-N-acetyl-galactosamine-transferase encoded by pCDM8-CT (full-length, wild type enzyme)”, the Released activity (units) of GalNAc-transferase in assay [1] worked out at 8390 units.
